Consider 45 molecules from patent publication US11814447B2, “Peptide ligands for binding to EphA2” (BICYCLERD LIMITED, priority 2018, dated 2023).

Starred links: 1 amine or outer side, 2 acyl side, 3 side chain; linkers in the order of their positions; H or OH if unused. Positions of bridges follow the written chain, without caps; N, C: chain ends. Non-standard residues stand in square brackets, D forms with d. Primed or numbered codes have the meaning given here. No end group written: not given here. TBMB′ = 1,3,5-tris(bromomethyl)benzene, 1,3,5-tris(methylene)benzene core, three thioethers to Cys; 4BenzylPro = 4-benzyl-pyrrolidine-2-carboxylic acid; Dip = N[C@H](C(=O)O)C(c1ccccc1)c1ccccc1; 1Nal = N[C@@H](Cc1cccc2ccccc12)C(=O)O; TBMB = c1c(C[*:1])cc(C[*:3])cc1C[*:2]; Ala(cPr) = N[C@@H](CC1CC1)C(=O)O; hArg = N=C(N)NCCCC[C@H](N)C(=O)O; Gly(cPr) = N[C@H](C(=O)O)C1CC1; Cba = N[C@@H](CC1CCC1)C(=O)O; Tle = CC(C)(C)[C@H](N)C(=O)O; Ac5c = NC1(C(=O)O)CCCC1; Ac4c = NC1(C(=O)O)CCC1; Ac3c = NC1(C(=O)O)CC1; Aib = CC(C)(N)C(=O)O; Sar = CNCC(=O)O

B1: Bicycle Compound 188 (peptide)
peptide: AHDVPCP[1Nal]GPFWCPVNRPGC
modifications: linker 6-13-20 via TBMB
B2: Bicycle Compound 187 (peptide)
peptide: AHDVPCP[1Nal]GPFWCPVNRPGCA
modifications: linker 6-13-20 via TBMB′
B3: Bicycle Compound 180 (peptide)
peptide: Ac-[Sar][Sar]A[dD]VTCPWG[Aib]FWCP[Tle]NR[Aib]GC
modifications: linker 7-14-21 via TBMB′
B4: Bicycle Compound 270 (peptide)
peptide: Ac-[Sar][Sar]H[dD]VPCPWG[Aib]FWCP[Tle]NR[Aib]GC
modifications: linker 7-14-21 via TBMB
B5: Bicycle Compound 157 (peptide)
peptide: Ac-[Sar][Sar]ADVTCPWGPFWCPVNRPGC
modifications: linker 7-14-21 via TBMB′
B6: Bicycle Compound 172 (peptide)
peptide: Ac-[Sar][Sar]A[dD]VTCPWGPNWCPVNRPGC
modifications: linker 7-14-21 via TBMB′
B7: Bicycle Compound 148 (peptide)
peptide: Ac-[Sar][Sar]ADVHCPWGPFWCPVNRPGC
modifications: linker 7-14-21 via TBMB
B8: Bicycle Compound 224 (peptide)
peptide: Ac-[Sar][Sar][dH]DVPCPWGPFWCPVNRPGC
modifications: linker 7-14-21 via TBMB
B9: Bicycle Compound 174 (peptide)
peptide: Ac-[Sar][Sar]A[dD]VTCPWGPFWCPLNRPGC
modifications: linker 7-14-21 via TBMB′
B10: Bicycle Compound 159 (peptide)
peptide: Ac-[Sar][Sar]A[dD][dD]TCPWGPFWCPVNRPGC
modifications: linker 7-14-21 via TBMB′
B11: Bicycle Compound 167 (peptide)
peptide: Ac-[Sar][Sar]A[dD]VTC[Ac5c]WGPFWCPVNRPGC
modifications: linker 7-14-21 via TBMB′
B12: Bicycle Compound 165 (peptide)
peptide: Ac-[Sar][Sar]A[dD]VTC[Ac3c]WGPFWCPVNRPGC
modifications: linker 7-14-21 via TBMB′
B13: Bicycle Compound 149 (peptide)
peptide: ADVHCP[Dip]GPFWCPVNRPGCA
modifications: linker 5-12-19 via TBMB
B14: Bicycle Compound 192 (peptide)
peptide: AHDVPCP[1Nal]G[Aib]FWCP[Tle]NR[Aib]GC
modifications: linker 6-13-20 via TBMB
B15: Bicycle Compound 191 (peptide)
peptide: AHDVPCP[1Nal]G[Aib]FWCP[Tle]N[hArg]PGC
modifications: linker 6-13-20 via TBMB
B16: Bicycle Compound 179 (peptide)
peptide: Ac-[Sar][Sar]A[dD]VTCPWG[Aib]F[1Nal]CPVNR[Aib]GC
modifications: linker 7-14-21 via TBMB′
B17: Bicycle Compound 268 (peptide)
peptide: Ac-[Sar][Sar]H[dD]VPCPWG[Aib]F[1Nal]CPVNR[Aib]GC
modifications: linker 7-14-21 via TBMB
B18: Bicycle Compound 160 (peptide)
peptide: Ac-[Sar][Sar]A[dD][Cba]TCPWGPFWCPVNRPGC
modifications: linker 7-14-21 via TBMB′
B19: Bicycle Compound 181 (peptide)
peptide: Ac-[Sar][Sar]A[dD]VTCP[1Nal]G[Aib]F[1Nal]CPVNR[Aib]GC
modifications: linker 7-14-21 via TBMB′
B20: Bicycle Compound 261 (peptide)
peptide: Ac-[Sar][Sar]H[dD]VPCP[1Nal]G[Aib]F[1Nal]CPVNR[Aib]GC
modifications: linker 7-14-21 via TBMB
B21: Bicycle Compound 171 (peptide)
peptide: Ac-[Sar][Sar]A[dD]VTCPWGP[hArg]WCPVNRPGC
modifications: linker 7-14-21 via TBMB′
B22: Bicycle Compound 190 (peptide)
peptide: AHDVPCP[1Nal]GPFWCP[Tle]NRPGC
modifications: linker 6-13-20 via TBMB
B23: Bicycle Compound 177 (peptide)
peptide: Ac-[Sar][Sar]A[dD]VTCPWGPFWCPVNR[Aib][dD]C
modifications: linker 7-14-21 via TBMB′
B24: Bicycle Compound 164 (peptide)
peptide: Ac-[Sar][Sar]AD[Tle]TCPWGPFWCPVNRPGC
modifications: linker 7-14-21 via TBMB′
B25: Bicycle Compound 170 (peptide)
peptide: Ac-[Sar][Sar]A[dD]VTCP[1Nal]GPFWCPVNRPGC
modifications: linker 7-14-21 via TBMB′
B26: Bicycle Compound 150 (peptide)
peptide: ADVHCP[1Nal]GPFWCPVNRPGCA
modifications: linker 5-12-19 via TBMB
B27: Bicycle Compound 193 (peptide)
peptide: Ac-[Sar][Sar]AHDVPCPWGPFWCPVNRPGC
modifications: linker 8-15-22 via TBMB
B28: Bicycle Compound 199 (peptide)
peptide: [Sar][Sar]A[dA]DVPCPWGPFWCPVNRPGC
modifications: linker 8-15-22 via TBMB
B29: Bicycle Compound 208 (peptide)
peptide: [Sar][Sar]AH[dE]VPCPWGPFWCPVNRPGC
modifications: linker 8-15-22 via TBMB
B30: Bicycle Compound 205 (peptide)
peptide: [Sar][Sar]AHAVPCPWGPFWCPVNRPGC
modifications: linker 8-15-22 via TBMB
B31: Bicycle Compound 195 (peptide)
peptide: Ac-[Sar][Sar]AADVPCPWGPFWCPVNRPGC
modifications: linker 8-15-22 via TBMB
B32: Bicycle Compound 214 (peptide)
peptide: [Sar][Sar]AHDAPCPWGPFWCPVNRPGC
modifications: linker 8-15-22 via TBMB
B33: Bicycle Compound 207 (peptide)
peptide: [Sar][Sar]AHEVPCPWGPFWCPVNRPGC
modifications: linker 8-15-22 via TBMB
B34: Bicycle Compound 206 (peptide)
peptide: [Sar][Sar]AH[dA]VPCPWGPFWCPVNRPGC
modifications: linker 8-15-22 via TBMB
B35: Bicycle Compound 200 (peptide)
peptide: Ac-[Sar][Sar]A[dD]DVPCPWGPFWCPVNRPGC
modifications: linker 8-15-22 via TBMB
B36: Bicycle Compound 161 (peptide)
peptide: Ac-[Sar][Sar]A[dD][Ala(cPr)]TCPWGPFWCPVNRPGC
modifications: linker 7-14-21 via TBMB′
B37: Bicycle Compound 162 (peptide)
peptide: Ac-[Sar][Sar]A[dD][Gly(cPr)]TCPWGPFWCPVNRPGC
modifications: linker 7-14-21 via TBMB′
B38: Bicycle Compound 168 (peptide)
peptide: Ac-[Sar][Sar]A[dD]VTC[4BenzylPro]WGPFWCPVNRPGC
modifications: linker 7-14-21 via TBMB′
B39: Bicycle Compound 189 (peptide)
peptide: AHDVPCPWGPF[1Nal]CPVNRPGC
modifications: linker 6-13-20 via TBMB
B40: Bicycle Compound 153 (peptide)
peptide: ADVHCPWG[Aib]FWCPVNRPGCA
modifications: linker 5-12-19 via TBMB′
B41: Bicycle Compound 186 (peptide)
peptide: [dD]VTCP[1Nal]G[Aib]F[1Nal]CP[Tle]NR[Aib]GC
modifications: linker 4-11-18 via TBMB′
B42: Bicycle Compound 178 (peptide)
peptide: Ac-[Sar][Sar]A[dD]VTCP[1Nal]G[Aib]FWCPVNR[Aib]GC
modifications: linker 7-14-21 via TBMB′
B43: Bicycle Compound 266 (peptide)
peptide: Ac-[Sar][Sar]H[dD]VPCP[1Nal]G[Aib]FWCPVNR[Aib]GC
modifications: linker 7-14-21 via TBMB
B44: Bicycle Compound 166 (peptide)
peptide: Ac-[Sar][Sar]A[dD]VTC[Ac4c]WGPFWCPVNRPGC
modifications: linker 7-14-21 via TBMB′
B45: Bicycle Compound 185 (peptide)
peptide: [dD]VTCPWGPFWCPVNRPGC
modifications: linker 4-11-18 via TBMB

The target of the assay is T1, Human EphA2 (Ecto) (Human, UniProt P29317 24-537).
T1 construct: extracellular domain
T1 sequence (P29317 24-537): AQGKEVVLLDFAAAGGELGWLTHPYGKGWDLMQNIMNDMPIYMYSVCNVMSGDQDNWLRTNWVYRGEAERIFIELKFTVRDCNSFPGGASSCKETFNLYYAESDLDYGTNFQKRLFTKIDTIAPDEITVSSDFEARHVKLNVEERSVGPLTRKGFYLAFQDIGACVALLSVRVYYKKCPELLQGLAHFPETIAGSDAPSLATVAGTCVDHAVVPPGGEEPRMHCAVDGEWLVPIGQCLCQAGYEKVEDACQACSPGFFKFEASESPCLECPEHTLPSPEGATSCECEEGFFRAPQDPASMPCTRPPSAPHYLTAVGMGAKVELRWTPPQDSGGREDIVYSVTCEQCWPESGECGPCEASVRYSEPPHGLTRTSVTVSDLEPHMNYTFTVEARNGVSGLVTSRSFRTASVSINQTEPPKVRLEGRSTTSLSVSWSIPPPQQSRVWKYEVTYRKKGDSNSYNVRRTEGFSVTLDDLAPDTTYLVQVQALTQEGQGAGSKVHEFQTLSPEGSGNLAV
The experiment in a line: FP competition, tracer Compound 18. As for the experimental part:
Peptides without a fluorescent tag were tested in competition with a peptide with a fluorescent tag and a known Kd (Table 2). Peptides were diluted to an appropriate concentration in assay buffer as described in the direct binding assay with a maximum of 5% DMSO, then serially diluted 1 in 2. […] Measurements were conducted as for the direct binding assay, however the gain was determined prior to the first measurement. Data analysis was in Systat Sigmaplot version 12.0 where the mP values were fit to a user defined cubic equation to generate a Ki value: […]
B1 displayed a Ki of 1.45 nM.
Molecule B2 had a Ki of 0.32 nM.
The same measure for B3: 3.83 nM; for B4: 1.52 nM; for B5: 0.91 nM.
Consider B6, for which the affinity, expressed as Ki, was 3.96 nM.
Regarding B7, the inhibition constant (Ki) was found to be 1.2 nM.
Molecule B8 showed a Ki of 1.09 nM.
Regarding B9, affinity was put at a Ki of 9.1 nM.
The result for B10 reads 2.85 nM; that for B11, 138 nM.
With B12, the affinity, expressed as Ki, was 185 nM.
The same measure for B13: 52.8 nM.
As for B14, affinity was put at a Ki of 1.75 nM.
On to B15, for which the Ki came to 3.1 nM.
With B16, the Ki was determined as 2.94 nM.
The result for B17 reads 1.24 nM.
Turning to B18, the Ki worked out at 2.6 nM.
The result for B19 reads 1.37 nM; that for B20, 0.63 nM; that for B21, 4.88 nM.
Consider B22, for which the Ki amounted to 0.7 nM.
The same measure for B23: 4.43 nM; for B24: 2.25 nM; for B25: 0.6 nM.
The same measure for B26: 0.12 nM; for B27: 0.59 nM; for B28: 3.35 nM.
In turn, B29 displayed an inhibitory constant (Ki) of 2 nM.
The result for B30 reads 1.8 nM; that for B31, 1.01 nM; that for B32, 22.5 nM.
Regarding B33, the affinity, expressed as Ki, was 1.3 nM.
B34 came in with a Ki of 8.3 nM.
For the molecule B35, the Ki was 4.1 nM.
The result for B36 reads 4.44 nM; that for B37, 2.55 nM.
The same measure for B38: 5.03 nM.
The molecule B39 gave an inhibition constant Ki of 1.3 nM.
B40 gave a Ki of 0.51 nM.
In turn, B41 returned a Ki of 1.34 nM.
The same measure for B42: 2.4 nM; for B43: 1.6 nM; for B44: 76.7 nM.
B45: the Ki came to 2.17 nM.

As a reminder, the Ki is the dissociation constant of the complex between target and ligand, obtained from inhibition or displacement.
